{
  "source": "patent US20060073133A1",
  "about": "(published 2006)",
  "key": {"[1]": {"target": "human sialoadhesin factor-3 (SAF-3), on cells (human) (UniProt Q9Y286)", "sequence (Q9Y286 19-467 L192P/I393V limits assumed)": "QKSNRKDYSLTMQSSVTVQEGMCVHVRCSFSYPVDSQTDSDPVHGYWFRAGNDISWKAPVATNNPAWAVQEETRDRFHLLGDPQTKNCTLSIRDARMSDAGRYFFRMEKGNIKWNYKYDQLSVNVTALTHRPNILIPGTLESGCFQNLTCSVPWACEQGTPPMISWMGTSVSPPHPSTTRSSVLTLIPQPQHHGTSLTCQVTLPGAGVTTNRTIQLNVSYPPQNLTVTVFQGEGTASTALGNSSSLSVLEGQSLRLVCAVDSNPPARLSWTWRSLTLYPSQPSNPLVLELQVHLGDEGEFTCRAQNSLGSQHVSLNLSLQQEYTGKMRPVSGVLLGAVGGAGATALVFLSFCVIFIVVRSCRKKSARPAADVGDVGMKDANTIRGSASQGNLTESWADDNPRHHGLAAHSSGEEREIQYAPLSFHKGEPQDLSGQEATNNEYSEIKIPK", "assay": "flow cytometry on monocyte-derived DCs cultured 7 days with mAb 12B1"}, "SAF-2": {"target": "SAF-2 (UniProt Q9NYZ4 17-363, limits assumed)", "sequence (Q9NYZ4 17-363 limits assumed)": "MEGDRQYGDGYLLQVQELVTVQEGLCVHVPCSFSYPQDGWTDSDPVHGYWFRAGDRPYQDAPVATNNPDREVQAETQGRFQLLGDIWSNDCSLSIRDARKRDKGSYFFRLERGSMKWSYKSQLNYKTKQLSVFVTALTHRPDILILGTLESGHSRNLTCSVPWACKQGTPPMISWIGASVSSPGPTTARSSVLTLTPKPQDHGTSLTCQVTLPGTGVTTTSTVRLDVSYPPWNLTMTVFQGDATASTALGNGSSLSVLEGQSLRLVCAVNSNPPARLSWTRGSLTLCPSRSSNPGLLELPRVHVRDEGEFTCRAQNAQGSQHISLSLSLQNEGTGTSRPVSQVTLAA", "assay": "displacement immunoassay"}},
  "data": [
    {"molecule": "Isotype Control (antibody)", "values": [
      {"measurement": "Mean Fluorescent Intensity", "setting": "[1]", "value": 3.5, "unit": "MFI"}
    ]},
    {"molecule": "monoclonal antibody 12B1 (antibody, IgG2a, V domains shown, also called mAb 12B1; SAF-3 mAb (clone 12B1)) VH: QIQLQQSGPELVKPGASVKVSCKASGYSFTDYNIYWVKQSHGKSLEWIGYIDPYNDDTGYNQKFKGKATLTVDKSSSTAFMHLNSLTSEDSAVYYCASEGIHWGQGTLVTVS VL: DIVMTQSQKFMSTSVGDRVSVTCKASQNVGTNVAWFQQKPGQSPKALIYSASYRYNGVPDRFTGSGSGTDFTLTISNVQSEDLADYFCQQYNIYPYTFGGGTKLEIK", "values": [
      {"measurement": "binding result", "setting": "SAF-2", "value": "no binding (tested: max. displacement 5%)"}
    ]}
  ]
}
